Results published in patent US20050032186, “Regulatory zinc finger proteins” (published 2005).

What was measured:
F475 = F475 (artificial (human zinc finger domains)); test: cell_activity; endogenous VEGF-A conc., unit not given; parental vector 400
F2646 = F2646 (artificial (human zinc finger domains)); test: as above; details: tags: HA, NLS, p65
F2634 = F2634 (artificial (human zinc finger domains)); test: as above; details: tags: HA, NLS, p65
F2612 = F2612 (artificial (human zinc finger domains)); test: cell_activity; endogenous VEGF-A conc., unit inferred; parental vector 400; details: tags: HA, NLS, p65
F2650 = F2650 (artificial (human zinc finger domains)); test: cell_activity; endogenous VEGF-A conc., unit not given; parental vector 400; details: tags: HA, NLS, p65
F121-KRAB = F121-KRAB (artificial (human zinc finger domains)); test: cell_activity; luciferase reporter with native VEGF promoter -950 to +450, 293 cells, 30 ng plasmid; details: tags: HA, NLS
Protocol: (§1) Human embryonic kidney 293 cells were maintained in Dulbecco's modified Eagle medium (DMEM) supplemented with 100 units/ml penicillin, 100 μg/ml streptomycin, and 10% fetal bovine serum (FBS). For the luciferase assay, 10⁴ cells/well were pre-cultured in a 96-well plate. Using a LIPOFECTAMINE™ transfection kit (Life Technologies, Rockville, Md.), 293 cells were transfected with 25 ng of a reporter plasmid in which the native VEGF-A promoter was fused to the luciferase gene in pGL3-basic (Promega), and 25 ng of a plasmid encoding a zinc finger protein. After 48 h of incubation, luciferase activity was measured with a DUAL LUCIFERASE™ assay kit (Promega) using a TD-20/20 luminometer (Turner Designs Inc., Sunnyvale, Calif.).
(§2) 293 cells were transfected with luciferase reporter plasmid pGL3-VEGFprom containing native human VEGF promoter(−950 to +450 from the transcription initiation site) and 30 ng of pLFD-F121-KRAB or pLFD-F109-KRAB. Luciferase activity was measured as described. Fold repression values were calculated by normalizing the firefly luciferase activity against the renilla luciferase activity and the result was compared with that of the control wherein 293 cells were transfected with the control vector pLFD and the reporter plasmid.

F121 = F121 (artificial (human zinc finger domains)); test: cell_activity; endogenous VEGF-A conc., unit inferred; parental vector 400
F2679 = F2679 (artificial (human zinc finger domains)); test: as above; details: tags: HA, NLS, p65
F109-KRAB = F109-KRAB (artificial (human zinc finger domains)); test: cell_activity; luciferase reporter with native VEGF promoter -950 to +450, 293 cells, 30 ng plasmid; details: tags: HA, NLS
Protocol: as §1, §2

F2604 = F2604 (artificial (human zinc finger domains)); test: cell_activity; endogenous VEGF-A conc., unit not given; parental vector 400; details: tags: HA, NLS, p65
F2615 = F2615 (artificial (human zinc finger domains)); test: as above; details: tags: HA, NLS, p65
F2610 = F2610 (artificial (human zinc finger domains)); test: as above; details: tags: HA, NLS, p65
F2638 = F2638 (artificial (human zinc finger domains)); test: as above; details: tags: HA, NLS, p65
F2633 = F2633 (artificial (human zinc finger domains)); test: as above; details: tags: HA, NLS, p65
F2644 = F2644 (artificial (human zinc finger domains)); test: as above; details: tags: HA, NLS, p65
F480 = F480 (artificial (human zinc finger domains)); test: as above
F2605 = F2605 (artificial (human zinc finger domains)); test: as above; details: tags: HA, NLS, p65
F2607 = F2607 (artificial (human zinc finger domains)); test: cell_activity; endogenous VEGF-A conc., unit inferred; parental vector 400; details: tags: HA, NLS, p65
Sequence of F2607 (artificial (human zinc finger domains)) (chain, as listed by the source): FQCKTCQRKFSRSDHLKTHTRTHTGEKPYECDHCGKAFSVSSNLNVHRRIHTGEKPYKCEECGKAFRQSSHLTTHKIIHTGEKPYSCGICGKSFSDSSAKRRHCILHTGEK

Sequence of F2633 (artificial (human zinc finger domains)) (chain, as listed by the source): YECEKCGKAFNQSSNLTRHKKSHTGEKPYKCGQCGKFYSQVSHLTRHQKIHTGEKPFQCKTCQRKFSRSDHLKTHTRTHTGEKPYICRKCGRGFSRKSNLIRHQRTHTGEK
Sequence of F2638 (artificial (human zinc finger domains)) (chain, as listed by the source): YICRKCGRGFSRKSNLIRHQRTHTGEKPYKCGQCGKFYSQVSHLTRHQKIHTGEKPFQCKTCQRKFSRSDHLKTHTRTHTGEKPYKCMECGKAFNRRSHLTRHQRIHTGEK
Sequence of F2634 (artificial (human zinc finger domains)) (chain, as listed by the source): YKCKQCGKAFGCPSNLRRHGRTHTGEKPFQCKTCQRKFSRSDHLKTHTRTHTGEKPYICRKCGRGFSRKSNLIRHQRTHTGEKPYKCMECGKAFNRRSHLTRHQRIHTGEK
Sequence of F2605 (artificial (human zinc finger domains)) (chain, as listed by the source): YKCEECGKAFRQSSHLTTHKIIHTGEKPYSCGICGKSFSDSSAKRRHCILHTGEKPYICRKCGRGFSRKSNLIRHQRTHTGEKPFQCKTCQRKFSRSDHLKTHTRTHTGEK
Sequence of F2615 (artificial (human zinc finger domains)) (chain, as listed by the source): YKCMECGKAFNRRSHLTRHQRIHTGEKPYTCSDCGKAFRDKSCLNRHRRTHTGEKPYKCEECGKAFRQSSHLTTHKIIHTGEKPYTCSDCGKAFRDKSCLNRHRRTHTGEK
Sequence of F2610 (artificial (human zinc finger domains)) (chain, as listed by the source): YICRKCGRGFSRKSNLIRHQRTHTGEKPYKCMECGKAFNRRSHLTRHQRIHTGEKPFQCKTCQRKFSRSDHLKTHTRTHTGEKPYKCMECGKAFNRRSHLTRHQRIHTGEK
Sequence of F2650 (artificial (human zinc finger domains)) (chain, as listed by the source): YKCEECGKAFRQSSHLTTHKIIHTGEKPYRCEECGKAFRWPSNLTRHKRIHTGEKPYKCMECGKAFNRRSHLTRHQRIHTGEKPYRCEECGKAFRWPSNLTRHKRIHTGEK
Sequence of F475 (artificial (human zinc finger domains)) (chain, as listed by the source): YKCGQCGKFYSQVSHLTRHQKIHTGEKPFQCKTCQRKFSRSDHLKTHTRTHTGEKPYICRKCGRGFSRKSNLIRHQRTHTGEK
Sequence of F480 (artificial (human zinc finger domains)) (chain, as listed by the source): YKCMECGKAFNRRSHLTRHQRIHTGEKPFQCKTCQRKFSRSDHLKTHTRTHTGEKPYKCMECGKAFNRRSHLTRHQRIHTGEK
Sequence of F2644 (artificial (human zinc finger domains)) (chain, as listed by the source): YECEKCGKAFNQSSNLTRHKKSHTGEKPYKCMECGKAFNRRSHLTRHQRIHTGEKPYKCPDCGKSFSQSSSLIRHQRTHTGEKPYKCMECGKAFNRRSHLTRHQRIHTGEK
Sequence of F2604 (artificial (human zinc finger domains)) (chain, as listed by the source): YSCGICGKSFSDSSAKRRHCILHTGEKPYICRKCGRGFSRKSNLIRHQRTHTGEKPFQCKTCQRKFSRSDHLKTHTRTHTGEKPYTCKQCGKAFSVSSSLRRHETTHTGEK
Sequence of F109-KRAB (artificial (human zinc finger domains)) (chain, as listed by the source): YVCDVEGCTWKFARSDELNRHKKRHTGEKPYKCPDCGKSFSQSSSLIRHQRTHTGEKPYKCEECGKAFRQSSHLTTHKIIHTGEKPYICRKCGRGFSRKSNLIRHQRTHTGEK
Sequence of F2612 (artificial (human zinc finger domains)) (chain, as listed by the source): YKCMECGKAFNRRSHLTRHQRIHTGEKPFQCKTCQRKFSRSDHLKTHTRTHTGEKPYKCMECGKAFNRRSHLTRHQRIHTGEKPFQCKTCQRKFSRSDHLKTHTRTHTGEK
Sequence of F121 (artificial (human zinc finger domains)) (chain, as listed by the source): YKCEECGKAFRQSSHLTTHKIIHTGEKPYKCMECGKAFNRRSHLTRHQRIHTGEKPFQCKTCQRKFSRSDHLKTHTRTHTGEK
Sequence of F2679 (artificial (human zinc finger domains)) (chain, as listed by the source): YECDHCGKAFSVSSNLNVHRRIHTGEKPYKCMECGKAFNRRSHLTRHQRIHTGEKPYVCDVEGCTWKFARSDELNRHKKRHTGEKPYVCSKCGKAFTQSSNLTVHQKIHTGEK
Sequence of F2646 (artificial (human zinc finger domains)) (chain, as listed by the source): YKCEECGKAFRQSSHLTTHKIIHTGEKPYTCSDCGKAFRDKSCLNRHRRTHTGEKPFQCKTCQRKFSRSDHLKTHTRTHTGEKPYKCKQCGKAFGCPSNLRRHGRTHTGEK

B1: VEGF-A -455 (9 bp) (dsDNA)
DNA 1: GAGCGGGGA
DNA 2: TCCCCGCTC
**Q.** B1 was tested. Which activity (F475) did it give?
**A.** 4150

B2: VEGF-A -314R (dsDNA)
DNA 1: GACAGGGCCTGA
DNA 2: TCAGGCCCTGTC
**Q.** B2 was tested. Which activity (F2646) did it give?
**A.** 3400

B3: VEGF-A -395R (dsDNA)
DNA 1: GGGGAGAGGGAC
DNA 2: GTCCCTCTCCCC
**Q.** For B3, which activity (F2634) is on record?
**A.** 2100

B4: VEGF-A -630R (dsDNA)
DNA 1: AGGGGGTGGGGG
DNA 2: CCCCCACCCCCT
**Q.** B4 was tested. Which activity (F2612) did it give?
**A.** 2000 pg/mL

B5: VEGF-A -206 (dsDNA)
DNA 1: GGTGGGGGTCGA
DNA 2: TCGACCCCCACC
**Q.** For B5, which activity (F2650) is on record?
**A.** 4400

B6: VEGF-A +434 (dsDNA)
DNA 1: TGGGGGTGA
DNA 2: TCACCCCCA
**Q.** Which activity (F121-KRAB) does the source give for B6 here?
**A.** 8.7 fold repression

**Q.** What about the activity (F121) of the same binder?
**A.** 1300 pg/mL

B7: VEGF-A +244R (dsDNA)
DNA 1: CAAGTGGGGAAT
DNA 2: ATTCCCCACTTG
**Q.** With B7 as the binder, how does the activity (F2679) read?
**A.** 1500 pg/mL

B8: VEGF-A -536 (dsDNA)
DNA 1: GAGCGAGCAGCG
DNA 2: CGCTGCTCGCTC
**Q.** With B8 as the binder, how does the activity (F109-KRAB) read?
**A.** 6.1 fold repression

B9: VEGF-A -680 (dsDNA)
DNA 1: GTTTGGGAGGTC
DNA 2: GACCTCCCAAAC
**Q.** With B9 as the binder, how does the activity (F2604) read?
**A.** 1000

B10: VEGF-A -606 (dsDNA)
DNA 1: GCCAGAGCCGGG
DNA 2: CCCGGCTCTGGC
**Q.** How did the activity (F2615) turn out when B10 was run?
**A.** 2700

B11: VEGF-A -633R (12 bp) (dsDNA)
DNA 1: GGGTGGGGGGAG
DNA 2: CTCCCCCCACCC
**Q.** How did the activity (F2610) turn out when B11 was run?
**A.** 2300

B12: VEGF-A -391R (12 bp) (dsDNA)
DNA 1: GGGTGGGGAGAG
DNA 2: CTCTCCCCACCC
**Q.** With B12 as the binder, how does the activity (F2638) read?
**A.** 1900

B13: VEGF-A -455 (12 bp) (dsDNA)
DNA 1: GAGCGGGGAGAA
DNA 2: TTCTCCCCGCTC
**Q.** B13 was tested. Which activity (F2633) did it give?
**A.** 4500

B14: VEGF-A -358R (dsDNA)
DNA 1: GGGGCAGGGGAA
DNA 2: TTCCCCTGCCCC
**Q.** How did the activity (F2644) turn out when B14 was run?
**A.** 4200

B15: VEGF-A -633R (9 bp) (dsDNA)
DNA 1: GGGTGGGGG
DNA 2: CCCCCACCC
**Q.** How did the activity (F480) turn out when B15 was run?
**A.** 3100

B16: VEGF-A -677 (dsDNA)
DNA 1: TGGGAGGTCAGA
DNA 2: TCTGACCTCCCA
**Q.** B16 was tested. Which activity (F2605) did it give?
**A.** 3700

B17: VEGF-A -671 (dsDNA)
DNA 1: GTCAGAAATAGG
DNA 2: CCTATTTCTGAC
**Q.** How did the activity (F2607) turn out when B17 was run?
**A.** 1600 pg/mL
